# Biological target: T1, biotin-labelled EZH2 protein (UniProt Q15910 1-746, limits assumed, biotin label (EZ-link NHS-PEO4-Biotinylation kit))
# T1 construct: Probe in solution (1 ug/ml) on the KDM2B peptide microarray; also called NHS-PEO4-Biotinylation-labelled EZH2 protein; recombinant protein
# Test: KDM2B peptide array probed with biotin-EZH2 1 ug/ml, SA-HRP/ECL;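 also: Background-corrected optical density of each spot on the membrane, given as percent of the brightest spot (100%), color developed for 5 minutes; 100% is the highest background-corrected spot optical density on the membrane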
# Procedure: After blocking, the polypeptide microarray was incubated with biotin-labeled target protein for hybridization, visualized with the chemical chromogenic substrate and imaged using a Chempchemi digital imager. The image of colored polypeptide microarray was analyzed for the optical density of the colored points. Particularly, the optical density of each colored point was calculated using the optical density of the respective surrounding background as a reference for background correction. The highest optical density value of the colored point on membrane was set to 100%, and the optical density value of the remaining colored points was converted into percentages relative to the highest value. The points with an optical density percentage of more than 30% on the polypeptide membrane and also with an optical density percentage of less than 30% on the negative membrane were defined as positive colored points.
# For the hybridization experiment, a solution of NHS-PEO4-Biotinylation-labelled EZH2 protein (1 μg/ml) was used for the hybridization of the polypeptide microarray. Streptavidin-HRP was used to amplify the reaction signal according to the experimental procedure and conditions described above, and the time of color development was 5 minutes.
# T1 sequence (Q15910 whole entry): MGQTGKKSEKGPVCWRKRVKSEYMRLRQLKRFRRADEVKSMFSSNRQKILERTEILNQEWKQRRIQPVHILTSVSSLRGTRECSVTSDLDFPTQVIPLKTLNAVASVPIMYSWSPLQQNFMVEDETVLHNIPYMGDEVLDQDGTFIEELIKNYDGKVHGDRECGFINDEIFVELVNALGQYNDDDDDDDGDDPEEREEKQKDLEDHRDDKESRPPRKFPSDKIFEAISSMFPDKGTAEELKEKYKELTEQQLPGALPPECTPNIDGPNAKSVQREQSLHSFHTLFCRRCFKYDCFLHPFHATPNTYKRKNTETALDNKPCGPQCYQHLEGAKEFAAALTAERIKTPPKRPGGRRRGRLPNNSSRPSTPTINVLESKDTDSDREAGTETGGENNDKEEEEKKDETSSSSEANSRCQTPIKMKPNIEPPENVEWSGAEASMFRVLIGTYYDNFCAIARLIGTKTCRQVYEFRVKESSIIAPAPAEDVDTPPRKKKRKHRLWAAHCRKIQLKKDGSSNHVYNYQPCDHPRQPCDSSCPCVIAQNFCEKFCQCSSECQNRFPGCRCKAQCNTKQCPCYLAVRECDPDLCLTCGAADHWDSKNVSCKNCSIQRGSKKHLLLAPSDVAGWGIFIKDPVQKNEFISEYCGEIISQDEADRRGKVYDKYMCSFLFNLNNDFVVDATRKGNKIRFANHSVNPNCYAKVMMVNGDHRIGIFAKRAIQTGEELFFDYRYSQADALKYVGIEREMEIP
row,Binder,Intensity (%)
1,QTEATNAIAEMKYPK [peptide 43],0
2,FFIPSGWIHAVYTPV [peptide 62],2.54
3,CHIDLRYCKQVTKEG [peptide 260],22.3
4,WIAVSALCSSSCPLL [peptide 233],34.8
5,MRDLLSPPTDNRPGQ [peptide 239],1
6,VDWVDNMWPQHLKEK [peptide 40],0
7,IKMPDPDFTVRDVKL [peptide 24],0
8,LALYEEWVLSGKQSD [peptide 55],0
9,MSMSQFVRYYETPEA [peptide 31],19.2
10,HLKEKQTEATNAIAE [peptide 42],2.03
11,LKDAQMRDLLSPPTD [peptide 238],0.62
12,SKLHLSYCNHVTDQS [peptide 249],0
13,EWVLSGKQSDIFLGD [peptide 56],24.6
14,SPPTDNRPGQMDNRS [peptide 240],0
15,AEMSVSVQFGQVEEK [peptide 264],2.91
16,QKGTEMSMSQFVRYY [peptide 30],1.2
17,RGGKIFWLIPPTLHN [peptide 52],0.55
18,ALCSSSCPLLRTLDV [peptide 234],3.59
19,RDVKLLVGSRRLVDV [peptide 26],0.36
20,YNVISLEFSHTKLEH [peptide 35],5.95
21,VTDQSINLLTAVGTT [peptide 251],0
22,LVKRPTVVDLVDWVD [peptide 38],0
23,KLRNIVELRLAGLDI [peptide 243],0.92
24,QRDKLYNVISLEFSH [peptide 34],0

row,Binder,Intensity (%)
1,MDVNTQKGTEMSMSQ [peptide 29],5.32
2,QRIELKQGYTFFIPS [peptide 60],0.3
3,RLIIRHMPLLSKLHL [peptide 247],3.66
4,RYCKQVTKEGCEQFI [peptide 261],5.21
5,TVVDLVDWVDNMWPQ [peptide 39],0.27
6,HSFNVPMQLRIYEIE [peptide 67],0
7,AEKQKKKTVIYTKCF [peptide 5],97
8,MDNRSKLRNIVELRL [peptide 242],0.64
9,EDHPPRKRHAAEKQK [peptide 3],0
10,IFLGDRVERCQRIEL [peptide 58],15.6
11,SDCNKVTDQCLSFFK [peptide 256],5.43
12,KQGYTFFIPSGWIHA [peptide 61],0.85
13,RVERCQRIELKQGYT [peptide 59],11.4
14,QWVEGLKDAQMRDLL [peptide 237],1.18
15,LMSVKGCFTDFHIDF [peptide 47],100
16,LEFSHTKLEHLVKRP [peptide 36],0.89
17,WYHVFRGGKIFWLIP [peptide 51],0
18,YTKCFEFESATQRPI [peptide 7],0
19,SYCNHVTDQSINLLT [peptide 250],0
20,KDGLGIKMPDPDFTV [peptide 23],0
21,GCFTDFHIDFGGTSV [peptide 48],0
22,LSGCSWIAVSALCSS [peptide 232],95.4
23,RTLDVQWVEGLKDAQ [peptide 236],2.1
24,RCGNICHIDLRYCKQ [peptide 259],1.36

row,Binder,Intensity (%)
1,VKKYCLMSVKGCFTD [peptide 46],100
2,SVQFGQVEEKLLQKL [peptide 265],2.09
3,LRDLVLSGCSWIAVS [peptide 231],100
4,INLLTAVGTTTRDSL [peptide 252],0.22
5,FWLIPPTLHNLALYE [peptide 53],0.7
6,SCPLLRTLDVQWVEG [peptide 235],2.02
7,PDFTVRDVKLLVGSR [peptide 25],0.02
8,PVSLDLSWTNISKKQ [peptide 226],0.51
9,HMPLLSKLHLSYCNH [peptide 248],1.15
10,KKTVIYTKCFEFESA [peptide 6],27.5
11,NMWPQHLKEKQTEAT [peptide 41],0
12,FHIDFGGTSVWYHVF [peptide 49],0
13,PMQLRIYEIEDRTRV [peptide 68],6.33
14,GGNILHSFNVPMQLR [peptide 66],0.54
15,TKLEHLVKRPTVVDL [peptide 37],0.73
16,NRLPGLRDLVLSGCS [peptide 230],7.03
17,GWIHAVYTPVDSLVF [peptide 63],1.74
18,VELRLAGLDITDASL [peptide 244],0.9
19,MKYPKVKKYCLMSVK [peptide 45],7.77
20,RLVDVMDVNTQKGTE [peptide 28],0
21,AGLDITDASLRLIIR [peptide 245],0.31
22,RKRHAAEKQKKKTVI [peptide 4],0
23,LVGSRRLVDVMDVNT [peptide 27],0

# Source: patent US20250197451A1 (CAPITAL MEDICAL UNIVERSITY SCHOOL OF STOMATOLOGY, published 2025)
